Assay results: US20240254227A1 (Alector, published 2024)
Substitutions are numbered along the chain they refer to.

T1: human CD300LB on primary human monocytes (human, UniProt A8K4G0 18-201)
T1 construct: Endogenous protein on primary cells; that the target is CD300LB is inferred from the antibodies being anti-CD300LB antibodies; also called Monocyte donor 1281; Monocyte donor 1282
T1 sequence: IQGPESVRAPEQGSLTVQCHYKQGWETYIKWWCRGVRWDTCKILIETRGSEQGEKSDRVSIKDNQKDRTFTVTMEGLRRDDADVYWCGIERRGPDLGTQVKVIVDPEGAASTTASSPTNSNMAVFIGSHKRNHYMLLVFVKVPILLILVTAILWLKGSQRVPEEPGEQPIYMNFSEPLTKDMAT

T2: human CD300LB on primary human macrophages (human, UniProt A8K4G0 18-201)
T2 sequence: T1 sequence

T3: recombinant murine CD300LB overexpressed on BaF/3 cells (mouse, UniProt Q3U497 18-209)
T3 sequence: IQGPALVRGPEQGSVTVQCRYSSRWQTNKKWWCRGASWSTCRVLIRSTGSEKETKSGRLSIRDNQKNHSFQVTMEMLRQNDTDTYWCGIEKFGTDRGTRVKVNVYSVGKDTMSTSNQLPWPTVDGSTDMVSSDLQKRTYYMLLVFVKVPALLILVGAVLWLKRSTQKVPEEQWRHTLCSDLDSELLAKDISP

T4: murine CD300LB on wild type mouse bone marrow macrophages (mouse, UniProt Q3U497 18-209)
T4 construct: Endogenous receptor on primary cells; also called mCD300LB; Wt BMM
T4 sequence: T3 sequence

T5: huCD300F constitutively expressed on 293 Freestyle (Freestyle HEK) cells (human, UniProt Q8TDQ1 20-290)
T5 construct: also called huCD300LF; Human CD300F
T5 sequence: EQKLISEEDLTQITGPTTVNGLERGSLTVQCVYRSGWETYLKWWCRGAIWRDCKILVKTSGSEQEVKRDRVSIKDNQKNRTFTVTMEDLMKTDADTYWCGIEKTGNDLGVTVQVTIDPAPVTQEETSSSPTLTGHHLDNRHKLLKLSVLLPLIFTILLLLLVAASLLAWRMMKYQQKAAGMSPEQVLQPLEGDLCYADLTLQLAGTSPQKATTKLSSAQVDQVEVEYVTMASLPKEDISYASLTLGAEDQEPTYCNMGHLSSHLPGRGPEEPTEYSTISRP

B1: anti-CD300LB antibody CD-05 (antibody, V domains shown)
VH: QVQLVQSGAEVKKPGASVKVSCKASGYTFSRYYINWVRQAPGQGLEWMGWINPNSGGTNYAQKFQGRVTMTRDTSTSTVYMELSSLRSEDTAVYYCTTDQLRFGKTGPYYGMDVWGQGTTVTVSS
VL: DIQMTQSPSSLSASVGDRVTITCRASQNIGTYLNWYQQKPGKAPKLLIYAASSLQSGVPSRFSGSGSGTDFTLTISSLQPEDFATYYCQQSYSDTLTFGGGTKVEIK
B2: anti-CD300LB antibody CD-06 (antibody, V domains shown)
VH: QVQLVQSGAEVKKPGASVKVSCKASGYTFTTYAVHWVRQAPGQGLEWMGIVNPNSGGTNYAQKFQGRVTMTRDTSTSTVYMELSSLRSEDTAVYYCARDIVPMNNFYNYYYGMDVWGQGTTVTVSS
VL: B1 VL with N28S, G30S, T31S, A51T, S53T, S93R, D94I, T95P, L96Y, G100Q
B3: anti-CD300LB antibody CD-11 (antibody, V domains shown)
VH: QIQLVQSGPEVKKPGETVKISCKASGYTLTDYSMHWVMQTPGTGLKWMAWMNTETGEPTYADDFKGRFAFSLETSAGTAYLQIDNLKNEDTATYFCATYGKSYGMKYWGQGTSVTVSS
VL: DIVLTQSPPSLAVSLGQRATISCRATKSVSPYLHWYQQTPGQPPKLLIYLASNLDSGVPARFSGSGSGTDFTLNIHPVEEEDAATYYCQHNKELPPTFGGGTRLEIK
B4: anti-CD300LB antibody CD-18 (antibody, V domains shown)
VH: DVQLQESGPDLVKPSQSLSLTCTVTGYSITSGYSWHWIRQFPDNKLEWMGYILSRGDTNFNPSLKSRISITRSTSNNQFFLHFNSVTTEDTATYYCARDFFDYWGQGTTLTVSS
VL: DVLMTQTPLSLPVSLGDQASISCRSSQSIVHSNGNTYLEWYLQKPGQSPKLLIYKVSDRFSGVPDRFSGSGSGTDFTLKISRVEAEDLGVYFCFQGSHVPYTFGGGTKLEIK
B5: anti-CD300LB antibody CD-14 (antibody, V domains shown)
VH: QIQLVQSGPELKKPGETVKISCKASGYTFTDYSLHWVKQTPEKNLKWMAWINTETGAPTYADDFKGRFAFSLETSSNTAYLLINNLKNEDTATYFCALTMVNYWGQGTTLTVSS
VL: DIVMTQSQKFMSTSVGDRVSVTCKASQNVGIRVAWHQQKPGQSPKTLIYSTSYRYSGVPDRFTGSGSGTEFILTISNVQSEDLAEYFCQQYNSYPYTFGGGTKLEIK
B6: anti-CD300LB antibody CD-12 (antibody, V domains shown)
VH: QIQLVQSGPELKKPGETVKISCKASGYTFTDYSMHWVRQAPGKGLKWMAWINTETGEATHADDFKGRFDFSLDTSASTAYLQIKNLKNEDTGIYFCVCYGSSYGMDYWGQGTSVTVSS
VL: DIVLTQSPASLPVSLGQRATISCRASKSVRTSGASYMHWYQQKPGQPPKLLIYLASNLKSGVPTRFSGSGSGTDFTLNIHPVEEEDAATYYCQHNREVPPTFGGGTKLEIK
B7: anti-CD300LB antibody CD-17 (antibody, V domains shown)
VH: QIQLVQSGPELKKPGETVKISCKASGYTLTDYSMHWVKQAPGKGLKWMGWINTETGEPRYGDDFKGRFAFSLETSASSAYLQINNLKNDDTATYFCATYGRSYGMDFWGQGTSVTVSS
VL: B6 VL with P12A, R30S, T31P, A34H, T64A, E85G, V98L, T106S
B8: anti-CD300LB antibody CD-16 (antibody, V domains shown)
VH: QIQLVQSGPELKKPGETVKISCKASGYTFTDYSMHWVKQAPGKGLKWMAWINTETGEPTYADDFRGRFAFSLETSGRTAYLEINNLRNEDTATYFCVTYGSSYGMAYWGQGTSVTVSS
VL: B6 VL with P12A, R30S, T31R, A34Y, M37L, N57K, K59E, T64A, E84A, V98I
B9: anti-CD300LB antibody CD-13 (antibody, V domains shown)
VH: QIQLVQSGPELKKPGETVKISCKASGYTFTDYSMHWVKQAPGKGFKWMAWINTETGAPTHADDFRGRFAFSLETSASTAFLQISNLKTEDTATYFCVTFGKSYGMNYWGQGTSVTVSS
VL: B6 VL with P12S, R30G, T31S, A34S, M37L, K59E, T64A, D74E, R96A
B10: anti-CD300LB antibody CD-15 (antibody, V domains shown)
VH: QIQLVQSGPELKKPGETVKISCQVSGYTFTDYSMHWLKQAPGKGLKWMAWINTETGESTYTDEFKGRFVFSLETSVRTAYLKINNLKNEDTATYFCGTYGSSYGMAYWGQGTSVTVSS
VL: B6 VL with R30S, A34S, M37L, N57K, K59E, T64A, S67R
B11: anti-CD300LB antibody CD-10 (antibody, V domains shown)
VH: QVQLQQSGPELVRPGVSVKISCKGSGYTFTDYAMHWVKQSHVRSREWIGVIGTYNGHTNYNQKFKGKATMTVDKSSSTAYLELARLTSEDSAIYYCARSGSYYYSMDYWGQGTSVTVSS
VL: QIVLTQSPAIMSASPGEKVTMTCSASSSVNYMHWYQQKSGTSPKRWIYDTSKLSSGVPARFSGSGSGTSYSLTISTMEAEDAATYYCQQWSSNPPMTFGGGTKLEIK
B12: anti-CD300LB antibody CD-03 (antibody, V domains shown)
VH: EVQLQQSGPELVKPGASVKISCKASGYTFTDYYINWVRQSHGKSLECIGDINPNNGGTNYNQKFKGKATLTVDRSSNTAYMEFRSLTFDDSALYYCAAEGAYWGQGTLVTVSA
VL: not shown

Each binder was assayed against T1, human CD300LB on primary human monocytes (assay: flow cytometry, primary human monocytes donor 1284, 10 ug/mL antibody, isotype control subtracted).
Description: (§1) Human monocytes from various donors were isolated from whole blood using RosetteSep Human Monocyte Enrichment Cocktail (Stemcell technologies) and Ficoll centrifugation per manufacturer protocols. After lysing red blood cells with ACK lysing buffer, monocytes were resuspended in complete media (RPMI, 10% FBS, Pen/Strep, L-glutamine, HEPES, non-essential amino acid, Sodium pyruvate). To obtain macrophages from these isolated monocytes, 100 ng/ml human M-CSF and 8% v/v human serum were added to the cells for 5-7 days. Cells were counted on the day of the experiment and plated at 100,000 cells per well in a round-bottom 96 well plate. Cells were incubated with TruStain Fc block and 10 μg/mL antibody for 1 hour on ice before washing with 250 μL ice cold PBS twice. Cells were then incubated with the appropriate APC-conjugated secondary antibodies for 20 minutes in the dark on ice. Finally, cells were washed twice with ice cold FACS buffer and then resuspended in 100 μL FACS buffer containing 1% propidium iodide. Samples were immediately analyzed using a BD FACSCanto flow cytometer. The gMFI was calculated using FlowJo software minus the gMFI of the appropriate isotype control.

Row | gMFI | Binder
1 | 166 gMFI | B1
2 | 1010 gMFI | B2

These binders were tested against T2, human CD300LB on primary human … (assay: flow cytometry, primary human macrophages donor 1275, 10 ug/mL antibody, isotype control subtracted).
Description: as §1

Row | gMFI | Binder
3 | 61000 gMFI | B1
4 | 26900 gMFI | B2

These binders were tested against T3, recombinant murine CD300LB … (assay: cell-based or functional assay).

Row | Luminescence in BaF/3 | Binder
5 | 22400 | B3
6 | 13000 | B4
7 | 19700 | B5
8 | 22800 | B6
9 | 24700 | B7
10 | 792 | B8
11 | 22400 | B9
12 | 23000 | B10

Each binder was assayed against T4, murine CD300LB on wild type mouse bone … (assay: flow cytometry, wild type mouse bone marrow macrophages, 10 ug/mL, isotype subtracted).
Description: To further examine the specificity of the anti-CD300LB antibodies to muCD300LB, bone marrow macrophages (BMM) from wild type (WT) and CD300LB knockout mice (KO) were analyzed for antibody binding by flow cytometry. Bone marrow from these mice was harvested and plated into three 20 cm PETRI dishes in complete media containing 50 ng/mL murine M-CSF (Peprotech). Media was changed every three days until day 6, when cells were harvested. Cells were detached with PBS 3 mM EDTA, washed and counted and plated at 100,000 cells/well in a 96 well plate. Cells were incubated with murine Fc block (Clone 2.4G2, BD) then with 10 μg/mL anti-CD300LB antibodies for 30 minutes on ice. […] Cells were washed twice more with 150 μL FACS buffer then resuspended to 100 μL in FACS buffer analyzed using a BD Canto II flow cytometer to calculate the geometric MFI minus the gMFI of the isotype control. Dead cells were stained with live/dead staining kit (Invitrogen).

Row | gMFI | Binder
13 | 349 gMFI | B3
14 | 192 gMFI | B11
15 | 1290 gMFI | B4
16 | 413 gMFI | B6
17 | 1230 gMFI | B7
18 | 233 gMFI | B8
19 | 256 gMFI | B10

These binders were tested against T5, huCD300F constitutively expressed on … (assay: flow cytometry, stable Freestyle HEK cells).
Description: Other members of the human CD300 family share sequence homology with human CD300LB. Thus, counter screens against binding of the anti-CD300LB antibodies to huCD300A, huCD300C, huCD300LD, huCD300E, huCD300LF, and huCD300G by stable overexpression in Freestyle HEK cells (generation of which is described above) were performed as follows. Cells were counted and labeled with 200 nM CFSE, 500 nM VioBlue, or a combination of the two to discriminate between CD300LB, Parental cells, and the other CD300 family members. Cells were washed thoroughly with PBS containing 2% fetal bovine serum then resuspended at a total of 240,000 cells per well. Hybridoma supernatants (100 L) or purified antibodies at various concentrations were added and incubated for one hour before the cells were washed twice again and stained with an APC-labeled anti-human or anti-mouse secondary antibody. Cells were then analyzed using a BD FACSCanto II. Anti-CD300LB antibodies were analyzed for specific binding to human CD300LB by FlowJo software by gating on live cells, then the APC geometric mean fluorescence intensity (gMFI) calculated for each labeled population. The results are shown in […]
Freestyle HEK cells were transfected with huCD300A, huCD300C, huCD300D, huCD300E, and huCD300G separately. Then, five stable cell lines from these transfections were pooled; the combined cells are herein known as CD300A/C/D/E/G. Freestyle HEK cells were also transfected with huCD300LB and huCD300F. All transfected cells were then tested for binding of anti-CD300LB antibodies of the present disclosure.

Row | binding result | gMFI | Binder
20 | no binding | 2090 gMFI | B12
21 | no binding | 2730 gMFI | B1
22 | no binding | 886 gMFI | B2

These binders were tested against T2, human CD300LB on primary human … (assay: flow cytometry, primary human macrophages donor 1278, 10 ug/mL antibody, isotype control subtracted).
Description: as §1

Row | gMFI | Binder
23 | 175000 gMFI | B1
24 | 169000 gMFI | B2

These binders were tested against T1, human CD300LB on primary human monocytes (assay: flow cytometry, primary human monocytes donor 1281, 10 ug/mL antibody, isotype control subtracted).
Description: as §1

Row | gMFI | Binder
25 | 736 gMFI | B1
26 | 1650 gMFI | B2
